Source: patent publication US10654939

How the values were obtained:
[1] = molecular target: rhesus CD40 expressed on HEK293A cells (rhesus monkey); assay: FACS, HEK293A/rhesusCD40 cells
[2] = molecular target: human CD40 expressed on cells (human) (UniProt P25942); assay: FACS, HEK293A/humanCD40 cells
[3] = molecular target: human CD40 expressed on cells (human) (UniProt P25942); assay: cell-based or functional assay
[4] = molecular target: recombinant human CD40 (ECD)-his (human) (UniProt P25942); assay: ELISA, hCD40(ECD)-his coated
[5] = molecular target: recombinant rhesus CD40 (ECD)-hFc (rhesus monkey); assay: ELISA, rhCD40(ECD)-hFc coated
[6] = molecular target: recombinant human CD40 (ECD)-his (human) (UniProt P25942); assay: SPR (Biacore 8K), hCD40(ECD)-his coupled to chip, antibody injected

Sequence of recombinant human CD40 (ECD)-his (human) (P25942 21-193): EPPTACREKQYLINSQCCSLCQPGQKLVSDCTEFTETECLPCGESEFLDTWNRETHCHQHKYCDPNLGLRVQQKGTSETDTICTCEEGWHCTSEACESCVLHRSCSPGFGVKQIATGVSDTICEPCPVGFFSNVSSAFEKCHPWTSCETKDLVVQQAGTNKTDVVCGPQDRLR
Sequence of human CD40 expressed on cells (human) (P25942 21-277 limits assumed): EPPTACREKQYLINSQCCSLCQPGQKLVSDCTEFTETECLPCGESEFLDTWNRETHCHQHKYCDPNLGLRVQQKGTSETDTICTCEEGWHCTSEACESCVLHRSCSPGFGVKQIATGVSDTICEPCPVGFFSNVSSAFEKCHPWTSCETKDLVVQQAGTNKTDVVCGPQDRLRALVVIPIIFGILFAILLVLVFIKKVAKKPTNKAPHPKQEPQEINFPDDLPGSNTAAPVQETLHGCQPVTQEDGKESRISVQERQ
Sequence of recombinant rhesus CD40 (ECD)-hFc (rhesus monkey) (P25942 other isoform, or with tags, fused parts or gaps): as the sequence (P25942 21-193) above, with G43S, H56R, W89L, T92M, A95S, L101P, S106L, H142R, L172Q counted along it
Sequence of rhesus CD40 expressed on HEK293A cells (rhesus monkey) (P25942 other isoform, or with tags, fused parts or gaps limits assumed): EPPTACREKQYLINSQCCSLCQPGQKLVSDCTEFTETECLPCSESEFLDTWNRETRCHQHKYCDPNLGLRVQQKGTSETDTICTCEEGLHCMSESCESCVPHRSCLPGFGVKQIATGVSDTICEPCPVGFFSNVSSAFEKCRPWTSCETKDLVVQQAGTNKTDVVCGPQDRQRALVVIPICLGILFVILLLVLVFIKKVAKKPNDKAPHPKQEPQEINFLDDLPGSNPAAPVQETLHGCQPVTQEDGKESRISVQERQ

B1: ADC1013 (antibody, INN chains, looked up, V domains shown)
VH: EVQLLESGGGLVQPGGSLRLSCAASGFTFSTYGMHWVRQAPGKGLEWLSYISGGSSYIFYADSVRGRFTISRDNSENALYLQMNSLRAEDTAVYYCARILRGGSGMDLWGQGTLVTVSS
VL: QSVLTQPPSASGTPGQRVTISCTGSSSNIGAGYNVYWYQQLPGTAPKLLIYGNINRPSGVPDRFSGSKSGTSASLAISGLRSEDEADYYCAAWDKSISGLVFGGGTKLTVL
modifications: IgG1/kappa
- EC50 [1]: 0.0673 µg/mL
- EC50 [2]: 0.149 µg/mL
- HEK Blue EC50 [3]: 1030 ng/mL
- EC50 [4]: 0.024 µg/mL
- EC50 [5]: 0.0229 µg/mL
- Kd [6]: 29 nM
- koff [6]: 0.0348 s⁻¹
- kon [6]: 1.2e+06 M⁻¹ s⁻¹
